Positions count from the first letter of the chain named.
What was measured:
[1] = molecular target: T1, HLA-DR (DRA*0101/DRB1*0401) on the surface of PRIESS cells (human, UniProt P01903 26-254; P01911 30-266); assay: cell-based or functional assay
T1 MHC II alpha: not shown
T1 MHC II beta: not shown

[2] = molecular target: HLA-DR on the surface of LG-2 cells (human B-lymphoblastoid cell line) (human); assay: cell-based or functional assay

B1: MS-GPC-8-27-41 Fab (Fab, V domains shown)
VH: QVQLKESGPALVKPTQTLTLTCTFSGFSLSTSGVGVGWIRQPPGKALEWLALIDWDDDKYYSTSLKTRLTISKDTSKNQVVLTMTNMDPVDTATYYCARSPRYRGAFDYWGQGTLVTVSS
VL: DIVLTQPPSVSGAPGQRVTISCSGSESNIGNNYVQWYQQLPGTAPKLLIYDNNQRPSGVPDRFSGSKSGTSASLAITGLQSEDEADYYCQSYDMNVHVFGGGTKLTVLG
EC50 of cell killing (nM) for bivalent agent; PRIESS cells; Fab cross-linked with anti-FLAG M2 [1]: 7.7 nM
EC50 of cell killing (nM) for bivalent agent; LG2 cells; Fab cross-linked with anti-FLAG M2 [2]: 7.2 nM

B2: MS-GPC-8-17 Fab (Fab, V domains shown)
VH: B1 VH
VL: B1 VL with E26S, N31S, Q35S, M94F, N95S, H97Y
EC50 of cell killing (nM) for bivalent agent; PRIESS cells; Fab cross-linked with anti-FLAG M2 [1]: 16 nM

B3: MS-GPC-8-6-2 Fab (Fab, V domains shown)
VH: B1 VH
VL: B1 VL with N31S, Q35H, M94Y, N95D, V96H, H97Y
EC50 of cell killing (nM) for bivalent agent; PRIESS cells; Fab cross-linked with anti-FLAG M2 [1]: 8 nM

— patent publication US20040019187A1 (published 2004)
